Measured values published in IntAct's records for PubMed 35512704.

B1: Speckle-type POZ protein (Homo sapiens), O43791 (parent)
chain: MSRVPSPPPPAEMSSGPVAESWCYTQIKVVKFSYMWTINNFSFCREEMGEVIKSSTFSSGANDKLKWCLRVNPKGLDEESKDYLSLYLLLVSCPKSEVRAKFKFSILNAKGEETKAMESQRAYRFVQGKDWGFKKFIRRDFLLDEANGLLPDDKLTLFCEVSVVQDSVNISGQNTMNMVKVPECRLADELGGLWENSRFTDCCLCVAGQEFQAHKAILAARSPVFSAMFEHEMEESKKNRVEINDVEPEVFKEMMCFIYTGKAPNLDKMADDLLAAADKYALERLKVMCEDALCSNLSVENAAEILILADLHSADQLKTQAVDFINYHASDVLETSGWKSMVVSHPHLVAEAYRSLASAQCPFLGPPRKRLKQS

Variants of: B1
Conditions: with maga6_human MAGEA6, P43360
With F133L the “effect of a mutation on the interaction” value was “with no effect”.

Variants of: B1
Conditions: with m3k1_human MAP3K1, Q13233
For F133L, the “effect of a mutation on the interaction” value was “with no effect”.

Variants of: B1
Conditions: with mk10_human MAPK10, P53779
For F133L, the “effect of a mutation on the interaction” value was “with no effect”.

Variants of: B1
Conditions: with mk14_human MAPK14, Q16539
mk14_human MAPK14, Q16539, sequence (Q16539 whole entry): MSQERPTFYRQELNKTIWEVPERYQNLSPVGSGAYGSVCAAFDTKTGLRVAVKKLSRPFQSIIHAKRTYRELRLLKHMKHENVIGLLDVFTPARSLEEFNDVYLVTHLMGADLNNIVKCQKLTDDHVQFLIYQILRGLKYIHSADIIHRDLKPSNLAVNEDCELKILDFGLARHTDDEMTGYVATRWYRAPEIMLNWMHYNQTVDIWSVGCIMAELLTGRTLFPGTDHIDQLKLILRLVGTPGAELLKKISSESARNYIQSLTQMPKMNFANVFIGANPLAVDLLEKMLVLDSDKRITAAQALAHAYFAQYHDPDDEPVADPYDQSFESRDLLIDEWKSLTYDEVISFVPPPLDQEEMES
F133L was tested, and the “effect of a mutation on the interaction” value was “with no effect”.

Variants of: B1
Conditions: with mk03_human MAPK3, P27361
With F133L the “effect of a mutation on the interaction” value was “with no effect”.

Variants of: B1
Conditions: with mk04_human MAPK4, P31152
With F133L the “effect of a mutation on the interaction” value was “with no effect”.

Variants of: B1
Conditions: with mk06_human MAPK6, Q16659
With F133L the “effect of a mutation on the interaction” value was “with no effect”.

Variants of: B1
Conditions: with mk07_human MAPK7, Q13164
In the case of F133L, the “effect of a mutation on the interaction” value is reported as “with no effect”.

Variants of: B1
Conditions: with sin1_human MAPKAP1, Q9BPZ7
With F133L the “effect of a mutation on the interaction” value was “with no effect”.

Variants of: B1
Conditions: with mcl1_human MCL1, Q07820
With F133L the “effect of a mutation on the interaction” value was “with no effect”.

Variants of: B1
Conditions: with mdm2_human MDM2, Q00987
In the case of F133L, the “effect of a mutation on the interaction” value is reported as “with no effect”.

Variants of: B1
Conditions: with mef2a_human MEF2A
For F133L, the “effect of a mutation on the interaction” value was “with no effect”.

Variants of: B1
Conditions: with mlh1_human MLH1, P40692
With F133L the “effect of a mutation on the interaction” value was “with no effect”.

Variants of: B1
Conditions: with mtor_human MTOR
F133L was tested, and the “effect of a mutation on the interaction” value was “with no effect”.

Variants of: B1
Conditions: with mybb_human MYBL2, P10244
F133L was tested, and the “effect of a mutation on the interaction” value was “with no effect”.

Variants of: B1
Conditions: with myc_human MYC
With F133L the “effect of a mutation on the interaction” value was “with no effect”.

Variants of: B1
Conditions: with mycn_human MYCN
With F133L the “effect of a mutation on the interaction” value was “with no effect”.

Variants of: B1
Conditions: with ncoa3_human NCOA3, Q9Y6Q9
ncoa3_human NCOA3, Q9Y6Q9, sequence (Q9Y6Q9 whole entry, looked up): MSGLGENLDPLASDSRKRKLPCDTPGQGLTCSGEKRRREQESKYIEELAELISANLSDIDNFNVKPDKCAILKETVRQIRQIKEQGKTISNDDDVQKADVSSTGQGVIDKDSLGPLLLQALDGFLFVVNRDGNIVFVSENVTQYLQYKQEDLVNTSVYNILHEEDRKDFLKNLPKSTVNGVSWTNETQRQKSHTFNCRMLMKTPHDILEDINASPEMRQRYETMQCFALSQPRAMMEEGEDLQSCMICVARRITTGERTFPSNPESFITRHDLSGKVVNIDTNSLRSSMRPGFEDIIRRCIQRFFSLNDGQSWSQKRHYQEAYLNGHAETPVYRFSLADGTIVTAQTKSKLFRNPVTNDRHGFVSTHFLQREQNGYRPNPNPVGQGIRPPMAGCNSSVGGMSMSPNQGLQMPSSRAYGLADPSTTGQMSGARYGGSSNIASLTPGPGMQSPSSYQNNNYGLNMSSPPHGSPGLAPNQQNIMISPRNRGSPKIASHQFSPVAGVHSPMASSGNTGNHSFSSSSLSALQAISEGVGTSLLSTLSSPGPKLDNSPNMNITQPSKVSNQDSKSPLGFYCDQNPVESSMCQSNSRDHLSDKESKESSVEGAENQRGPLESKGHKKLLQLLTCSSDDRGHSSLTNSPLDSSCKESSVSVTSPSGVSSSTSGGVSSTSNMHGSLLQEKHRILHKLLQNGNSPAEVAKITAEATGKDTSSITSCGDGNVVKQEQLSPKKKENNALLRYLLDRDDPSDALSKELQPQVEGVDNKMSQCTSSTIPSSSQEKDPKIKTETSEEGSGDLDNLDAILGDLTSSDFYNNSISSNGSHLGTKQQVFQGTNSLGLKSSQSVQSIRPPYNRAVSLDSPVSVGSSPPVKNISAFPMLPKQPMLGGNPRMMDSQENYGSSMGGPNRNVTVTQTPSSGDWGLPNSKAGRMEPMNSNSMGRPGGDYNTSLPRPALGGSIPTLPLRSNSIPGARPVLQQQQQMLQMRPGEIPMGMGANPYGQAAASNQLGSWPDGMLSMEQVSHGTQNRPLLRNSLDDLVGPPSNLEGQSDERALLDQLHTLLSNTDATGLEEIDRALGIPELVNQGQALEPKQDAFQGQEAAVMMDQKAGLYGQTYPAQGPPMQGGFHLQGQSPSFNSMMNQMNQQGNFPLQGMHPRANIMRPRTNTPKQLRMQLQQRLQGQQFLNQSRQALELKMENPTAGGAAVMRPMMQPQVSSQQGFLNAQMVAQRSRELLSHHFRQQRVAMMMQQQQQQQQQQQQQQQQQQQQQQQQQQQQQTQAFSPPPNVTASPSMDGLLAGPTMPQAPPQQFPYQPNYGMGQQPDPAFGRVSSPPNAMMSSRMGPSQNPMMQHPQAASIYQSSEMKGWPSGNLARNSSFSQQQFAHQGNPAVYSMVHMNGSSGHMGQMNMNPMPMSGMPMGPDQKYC
For F133L, the “effect of a mutation on the interaction” value was “with no effect”.

Variants of: B1
Conditions: with ikba_human NFKBIA
For F133L, the “effect of a mutation on the interaction” value was “with no effect”.

Variants of: B1
Conditions: with notc2_human NOTCH2, Q04721
For F133L, the “effect of a mutation on the interaction” value was “with no effect”.

Variants of: B1
Conditions: with nox1_human NOX1, Q9Y5S8
In the case of F133L, the “effect of a mutation on the interaction” value is reported as “with no effect”.

Variants of: B1
Conditions: with ntrk2_human NTRK2, Q16620
With F133L the “effect of a mutation on the interaction” value was “with no effect”.

Variants of: B1
Conditions: with ntrk3_human NTRK3, Q16288
For F133L, the “effect of a mutation on the interaction” value was “with no effect”.

Variants of: B1
Conditions: with pak3_human PAK3, O75914
F133L was tested, and the “effect of a mutation on the interaction” value was “with no effect”.

Variants of: B1
Conditions: with prkn_human PRKN
In the case of F133L, the “effect of a mutation on the interaction” value is reported as “with no effect”.

Variants of: B1
Conditions: with pax5_human PAX5, Q02548
With F133L the “effect of a mutation on the interaction” value was “with no effect”.

Variants of: B1
Conditions: with pcbp1_human PCBP1, Q15365
pcbp1_human PCBP1, Q15365, sequence (Q15365 whole entry): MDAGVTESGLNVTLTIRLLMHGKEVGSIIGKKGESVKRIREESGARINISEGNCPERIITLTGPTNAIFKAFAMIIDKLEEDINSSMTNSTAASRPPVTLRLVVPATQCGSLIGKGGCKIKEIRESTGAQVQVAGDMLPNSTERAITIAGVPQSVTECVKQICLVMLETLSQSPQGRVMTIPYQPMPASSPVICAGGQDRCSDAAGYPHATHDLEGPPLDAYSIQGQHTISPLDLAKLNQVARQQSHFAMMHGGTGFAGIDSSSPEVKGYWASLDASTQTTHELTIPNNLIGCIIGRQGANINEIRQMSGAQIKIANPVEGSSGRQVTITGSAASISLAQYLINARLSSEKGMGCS
With F133L the “effect of a mutation on the interaction” value was “with no effect”.

Variants of: B1
Conditions: with pdcd1_human PDCD1, Q15116
For F133L, the “effect of a mutation on the interaction” value was “with no effect”.

Variants of: B1
Conditions: with pgfrb_human PDGFRB
For F133L, the “effect of a mutation on the interaction” value was “with no effect”.

Variants of: B1
Conditions: with pdk1_human PDK1, Q15118
In the case of F133L, the “effect of a mutation on the interaction” value is reported as “with no effect”.

Variants of: B1
Conditions: with PIK3C2B
In the case of F133L, the “effect of a mutation on the interaction” value is reported as “with no effect”.

Variants of: B1
Conditions: with pk3ca_human PIK3CA
With F133L the “effect of a mutation on the interaction” value was “with no effect”.

Variants of: B1
Conditions: with pk3cg_human PIK3CG
With F133L the “effect of a mutation on the interaction” value was “with no effect”.

Variants of: B1
Conditions: with p85b_human PIK3R2, O00459
For F133L, the “effect of a mutation on the interaction” value was “with no effect”.

Variants of: B1
Conditions: with dpod1_human POLD1, P28340
F133L was tested, and the “effect of a mutation on the interaction” value was “with no effect”.

Variants of: B1
Conditions: with dpoe1_human POLE
For F133L, the “effect of a mutation on the interaction” value was “with no effect”.

Variants of: B1
Conditions: with ppard_human PPARD
F133L was tested, and the “effect of a mutation on the interaction” value was “with no effect”.

Variants of: B1
Conditions: with prdm1_human PRDM1, O75626
In the case of F133L, the “effect of a mutation on the interaction” value is reported as “with no effect”.

Variants of: B1
Conditions: with prex2_human PREX2, Q70Z35
For F133L, the “effect of a mutation on the interaction” value was “with no effect”.

Variants of: B1
Conditions: with aapk2_human PRKAA2, P54646
aapk2_human PRKAA2, P54646, sequence (P54646 whole entry, looked up): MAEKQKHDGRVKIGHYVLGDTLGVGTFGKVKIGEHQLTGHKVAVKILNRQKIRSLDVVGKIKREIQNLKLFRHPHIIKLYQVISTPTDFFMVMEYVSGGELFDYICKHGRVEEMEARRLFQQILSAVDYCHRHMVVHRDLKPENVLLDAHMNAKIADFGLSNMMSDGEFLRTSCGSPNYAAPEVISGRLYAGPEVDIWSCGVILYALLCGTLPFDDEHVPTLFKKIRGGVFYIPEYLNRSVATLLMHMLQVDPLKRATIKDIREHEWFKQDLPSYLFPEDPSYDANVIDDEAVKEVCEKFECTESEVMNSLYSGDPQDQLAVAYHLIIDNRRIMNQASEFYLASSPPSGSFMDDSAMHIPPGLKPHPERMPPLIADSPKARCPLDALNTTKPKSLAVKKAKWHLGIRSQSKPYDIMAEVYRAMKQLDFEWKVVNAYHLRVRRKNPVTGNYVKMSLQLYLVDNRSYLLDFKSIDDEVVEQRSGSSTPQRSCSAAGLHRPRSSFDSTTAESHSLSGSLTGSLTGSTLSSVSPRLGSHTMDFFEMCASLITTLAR
For F133L, the “effect of a mutation on the interaction” value was “with no effect”.

Variants of: B1
Conditions: with prss8_human PRSS8, Q16651
F133L was tested, and the “effect of a mutation on the interaction” value was “with no effect”.

Variants of: B1
Conditions: with tf65_human RELA
F133L was tested, and the “effect of a mutation on the interaction” value was “with no effect”.

Variants of: B1
Conditions: with rictr_human RICTOR
With F133L the “effect of a mutation on the interaction” value was “with no effect”.

Variants of: B1
Conditions: with rnf43_human RNF43, Q68DV7
With F133L the “effect of a mutation on the interaction” value was “with no effect”.

Variants of: B1
Conditions: with ros1_human ROS1, P08922
ros1_human ROS1, P08922, sequence (P08922 whole entry): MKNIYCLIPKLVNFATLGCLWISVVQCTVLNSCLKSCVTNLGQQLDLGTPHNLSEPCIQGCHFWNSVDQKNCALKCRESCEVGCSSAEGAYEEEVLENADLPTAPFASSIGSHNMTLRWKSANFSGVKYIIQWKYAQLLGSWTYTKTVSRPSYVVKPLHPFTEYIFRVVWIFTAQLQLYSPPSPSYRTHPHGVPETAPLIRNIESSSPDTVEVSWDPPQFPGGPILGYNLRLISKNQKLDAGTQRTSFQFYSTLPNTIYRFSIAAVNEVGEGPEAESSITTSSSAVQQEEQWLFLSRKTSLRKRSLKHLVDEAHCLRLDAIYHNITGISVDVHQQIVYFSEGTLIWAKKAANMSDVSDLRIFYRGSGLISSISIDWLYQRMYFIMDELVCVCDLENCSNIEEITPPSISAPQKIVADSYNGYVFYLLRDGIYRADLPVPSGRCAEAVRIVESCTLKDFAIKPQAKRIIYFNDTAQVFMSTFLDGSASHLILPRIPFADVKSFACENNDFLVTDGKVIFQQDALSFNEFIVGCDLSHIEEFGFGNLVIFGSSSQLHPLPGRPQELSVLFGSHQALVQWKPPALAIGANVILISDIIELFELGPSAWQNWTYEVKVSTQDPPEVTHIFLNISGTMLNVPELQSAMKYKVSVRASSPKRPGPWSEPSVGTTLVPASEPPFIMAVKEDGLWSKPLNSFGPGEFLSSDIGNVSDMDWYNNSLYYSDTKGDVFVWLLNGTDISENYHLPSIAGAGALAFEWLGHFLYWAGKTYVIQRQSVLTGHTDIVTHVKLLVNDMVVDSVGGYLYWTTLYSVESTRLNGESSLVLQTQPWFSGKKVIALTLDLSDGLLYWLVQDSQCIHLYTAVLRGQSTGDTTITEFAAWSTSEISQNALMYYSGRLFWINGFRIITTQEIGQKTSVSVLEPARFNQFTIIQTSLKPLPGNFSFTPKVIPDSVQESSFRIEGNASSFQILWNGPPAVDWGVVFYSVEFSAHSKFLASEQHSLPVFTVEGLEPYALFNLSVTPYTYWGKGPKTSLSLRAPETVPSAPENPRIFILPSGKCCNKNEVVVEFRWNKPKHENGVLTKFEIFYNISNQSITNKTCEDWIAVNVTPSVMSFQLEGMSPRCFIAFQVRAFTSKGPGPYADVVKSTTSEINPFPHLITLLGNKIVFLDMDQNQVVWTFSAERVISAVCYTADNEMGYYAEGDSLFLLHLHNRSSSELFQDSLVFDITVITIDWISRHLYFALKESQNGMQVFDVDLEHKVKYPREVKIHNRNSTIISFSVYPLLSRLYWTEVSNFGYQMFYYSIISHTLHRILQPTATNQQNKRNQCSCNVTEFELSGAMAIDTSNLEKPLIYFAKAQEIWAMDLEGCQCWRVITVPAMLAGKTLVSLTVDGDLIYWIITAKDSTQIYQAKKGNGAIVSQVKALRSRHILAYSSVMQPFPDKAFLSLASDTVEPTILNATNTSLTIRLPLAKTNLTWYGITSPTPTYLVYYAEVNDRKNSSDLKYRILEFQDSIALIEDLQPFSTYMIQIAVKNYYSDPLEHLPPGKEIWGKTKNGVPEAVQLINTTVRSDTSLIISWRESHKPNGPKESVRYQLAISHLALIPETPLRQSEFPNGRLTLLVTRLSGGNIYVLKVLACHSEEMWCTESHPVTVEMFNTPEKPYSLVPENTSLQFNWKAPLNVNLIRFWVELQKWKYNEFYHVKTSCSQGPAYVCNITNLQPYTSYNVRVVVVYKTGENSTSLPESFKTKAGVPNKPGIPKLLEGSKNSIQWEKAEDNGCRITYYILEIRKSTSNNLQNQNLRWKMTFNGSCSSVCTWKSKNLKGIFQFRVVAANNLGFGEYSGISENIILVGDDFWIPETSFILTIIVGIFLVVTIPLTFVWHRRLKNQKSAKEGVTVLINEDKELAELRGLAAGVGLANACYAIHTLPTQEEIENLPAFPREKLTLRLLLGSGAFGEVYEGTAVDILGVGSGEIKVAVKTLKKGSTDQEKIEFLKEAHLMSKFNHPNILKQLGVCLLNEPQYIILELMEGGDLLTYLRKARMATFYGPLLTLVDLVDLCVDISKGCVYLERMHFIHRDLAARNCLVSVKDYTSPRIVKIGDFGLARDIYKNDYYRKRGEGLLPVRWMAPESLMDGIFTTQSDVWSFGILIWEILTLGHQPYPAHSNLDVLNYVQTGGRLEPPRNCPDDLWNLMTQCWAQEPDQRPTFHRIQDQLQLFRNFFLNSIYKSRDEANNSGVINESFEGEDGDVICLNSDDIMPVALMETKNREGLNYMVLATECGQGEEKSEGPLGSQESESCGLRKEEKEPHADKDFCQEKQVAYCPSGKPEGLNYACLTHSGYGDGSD
In the case of F133L, the “effect of a mutation on the interaction” value is reported as “with no effect”.

Variants of: B1
Conditions: with rl11_human RPL11, P62913
F133L was tested, and the “effect of a mutation on the interaction” value was “with no effect”.
